# Measurements from US20180177166.
# What was measured:
# Experiment in all cases: cell_activity
# [1] = system: ssMYF5 1.1 TALEN right (synthetic (Xanthomonas TALE-FokI)?); details: TALEN pair with P3, pig fibroblasts; site printed on top strand
# [2] = system: ssMYOD 1.2 TALEN right (synthetic (Xanthomonas TALE-FokI)?); details: TALEN pair with P1, pig fibroblasts
# [3] = system: ssMYOD 1.2 TALEN left (synthetic (Xanthomonas TALE-FokI)?); details: TALEN pair with P2, triplex transfection with HDR oligo, pig fibroblasts, HindIII RFLP
# [4] = system: ssMYF6 1.2 TALEN right (synthetic (Xanthomonas TALE-FokI)?); details: TALEN pair with P5, pig fibroblasts; site printed on top strand
# [5] = system: ssMYF6 1.2 TALEN left (synthetic (Xanthomonas TALE-FokI)?); details: TALEN pair with P6, triplex transfection with HDR oligo, pig fibroblasts, HindIII RFLP
# [6] = system: ssMYF5 1.1 TALEN left (synthetic (Xanthomonas TALE-FokI)?); details: TALEN pair with P4, triplex transfection with HDR oligo, pig fibroblasts, HindIII RFLP
sequence,measurement,setting,value
AAATCCACCACCATGG (double strand) [ssMYF5 1.1 right half-site],activity (% HDR alleles),[1],31
AGGCTGCCCAAGGTGG (double strand) [ssMYOD 1.2 right half-site],activity (% HDR alleles),[2],14
CAAGAGGTGCACCAC (double strand) [ssMYOD 1.2 left half-site],activity (% HDR alleles),[3],14
GACAGCAGTGGAGAGGA (double strand) [ssMYF6 1.2 right half-site],activity (% HDR alleles),[4],36
GCCAGGACCAAATGCC (double strand) [ssMYF6 1.2 left half-site],activity (% HDR alleles),[5],36
GCCTCATGTGGGCCTG (double strand) [ssMYF5 1.1 left half-site],activity (% HDR alleles),[6],31
